Assay results from publication PMC9482650, “Quantitative fragmentomics allow affinity mapping of interactomes” (Nature Communications, 2022).

Experiments:
Experiment in all cases: holdup assay
Parameters in all cases: key: below the threshold = too weak to quantify, mostly under pKd 3.1 to 4
SNTG1, Q9NSN8 = target: T1, SNTG1, Q9NSN8
T1 sequence (Q9NSN8 52-150, limits assumed, looked up): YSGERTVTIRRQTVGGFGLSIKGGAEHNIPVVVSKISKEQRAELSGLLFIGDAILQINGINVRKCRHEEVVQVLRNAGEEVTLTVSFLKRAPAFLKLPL

FRMPD2_3, Q68DX3 = target: FRMPD2_3, Q68DX3
CASK, O14936 = target: CASK, O14936
MPP7, Q5T2T1 = target: T2, MPP7, Q5T2T1
T2 sequence (Q5T2T1 134-230, limits assumed, looked up): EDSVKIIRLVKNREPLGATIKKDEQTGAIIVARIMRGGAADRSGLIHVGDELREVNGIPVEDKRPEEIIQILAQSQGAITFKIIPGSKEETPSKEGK

PARD3B_1, Q8TEW8 = target: T3, PARD3B_1, Q8TEW8
T3 sequence (Q8TEW8 196-299, limits assumed, looked up): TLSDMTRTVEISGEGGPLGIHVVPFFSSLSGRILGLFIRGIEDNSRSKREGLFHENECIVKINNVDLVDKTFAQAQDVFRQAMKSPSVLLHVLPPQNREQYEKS

HTRA1, Q92743 = target: HTRA1, Q92743
GRIP2_4, Q9C0E4 = target: GRIP2_4, Q9C0E4
DFNB31_1, Q9P202 = target: T4, DFNB31_1, Q9P202
T4 sequence (Q9P202 135-233, limits assumed, looked up): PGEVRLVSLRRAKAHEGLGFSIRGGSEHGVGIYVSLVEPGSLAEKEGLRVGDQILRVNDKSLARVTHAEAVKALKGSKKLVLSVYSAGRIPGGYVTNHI

MPDZ_10, O75970 = target: T5, MPDZ_10, O75970
T5 sequence (O75970 1624-1722, limits assumed, looked up): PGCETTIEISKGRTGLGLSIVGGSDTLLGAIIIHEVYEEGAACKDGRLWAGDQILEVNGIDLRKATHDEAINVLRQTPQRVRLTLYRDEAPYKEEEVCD

DLG1_3, Q12959 = target: DLG1_3, Q12959
HTRA3, P83110 = target: T6, HTRA3, P83110
T6 sequence (P83110 354-453, limits assumed, looked up): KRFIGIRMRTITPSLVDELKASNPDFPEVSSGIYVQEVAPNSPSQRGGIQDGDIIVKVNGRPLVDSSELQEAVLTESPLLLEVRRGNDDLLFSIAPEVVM

TJP1_3, Q07157 = target: TJP1_3, Q07157
PDLIM1, O00151 = target: PDLIM1, O00151
LIN7C, Q9NUP9 = target: T7, LIN7C, Q9NUP9
T7 sequence (Q9NUP9 88-185, limits assumed, looked up): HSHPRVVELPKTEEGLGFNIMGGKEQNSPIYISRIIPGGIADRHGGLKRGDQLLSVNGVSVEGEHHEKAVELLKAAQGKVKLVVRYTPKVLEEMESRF

Inadl_6, Q8NI35 = target: Inadl_6, Q8NI35
MAGI1_1, Q96QZ7 = target: MAGI1_1, Q96QZ7
PTPN13_1, Q12923 = target: T8, PTPN13_1, Q12923
T8 sequence (Q12923 1088-1188, limits assumed, looked up): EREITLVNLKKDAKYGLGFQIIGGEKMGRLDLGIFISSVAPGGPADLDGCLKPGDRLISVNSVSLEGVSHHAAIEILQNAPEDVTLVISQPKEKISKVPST

Inadl_5, Q8NI35 = target: Inadl_5, Q8NI35
Inadl_3, Q8NI35 = target: Inadl_3, Q8NI35
GRID2IP_2, A4D2P6 = target: GRID2IP_2, A4D2P6
MAGI3_2, Q5TCQ9 = target: MAGI3_2, Q5TCQ9
GRIP1_4, Q9Y3R0 = target: T9, GRIP1_4, Q9Y3R0
T9 sequence (Q9Y3R0 467-571, limits assumed, looked up): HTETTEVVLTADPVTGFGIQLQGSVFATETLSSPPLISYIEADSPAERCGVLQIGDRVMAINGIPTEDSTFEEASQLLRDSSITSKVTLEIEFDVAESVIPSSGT

ARHGEF12, Q9NZN5-2 = target: ARHGEF12, Q9NZN5-2
NHERF2_2, Q15599 = target: NHERF2_2, Q15599
APBA1_1, Q02410 = target: T10, APBA1_1, Q02410
T10 sequence (Q02410 651-752, limits assumed, looked up): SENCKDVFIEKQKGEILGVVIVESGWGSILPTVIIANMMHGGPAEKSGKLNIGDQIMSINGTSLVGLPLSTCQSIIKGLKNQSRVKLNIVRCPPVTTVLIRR

Inadl_4, Q8NI35 = target: Inadl_4, Q8NI35
MPDZ_12, O75970 = target: T11, MPDZ_12, O75970
T11 sequence (O75970 1857-1958, limits assumed, looked up): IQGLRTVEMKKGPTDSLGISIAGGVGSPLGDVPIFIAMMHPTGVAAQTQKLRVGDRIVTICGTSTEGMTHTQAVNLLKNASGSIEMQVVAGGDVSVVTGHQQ

[1] = plain residues with an end cap or a label only (N-terminal biotin on a linker: ado-ado, ttds)
[2] = plain residues with an end cap or a label only (N-terminal biotin on a linker: ttds)
[3] = plain residues with an end cap or a label only (N-terminal biotin on a linker: ahx)

Measured: pKd

Sequence of HTRA1, Q92743 (Q92743 360-477): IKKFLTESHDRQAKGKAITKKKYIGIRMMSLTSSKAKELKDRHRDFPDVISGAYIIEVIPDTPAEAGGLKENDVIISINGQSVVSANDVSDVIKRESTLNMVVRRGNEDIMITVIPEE
Sequence of Inadl_3, Q8NI35 (Q8NI35 359-469): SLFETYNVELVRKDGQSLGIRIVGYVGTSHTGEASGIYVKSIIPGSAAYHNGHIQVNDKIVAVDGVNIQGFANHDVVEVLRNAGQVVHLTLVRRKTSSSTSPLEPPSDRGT
Sequence of NHERF2_2, Q15599 (Q15599 142-238): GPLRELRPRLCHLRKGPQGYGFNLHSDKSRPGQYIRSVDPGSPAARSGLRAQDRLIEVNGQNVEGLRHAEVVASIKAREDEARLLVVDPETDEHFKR
Sequence of TJP1_3, Q07157 (Q07157 416-512): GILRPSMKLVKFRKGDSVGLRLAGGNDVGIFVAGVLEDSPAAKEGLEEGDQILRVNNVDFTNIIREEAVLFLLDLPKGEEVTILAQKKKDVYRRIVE
Sequence of MAGI3_2, Q5TCQ9 (Q5TCQ9 398-503): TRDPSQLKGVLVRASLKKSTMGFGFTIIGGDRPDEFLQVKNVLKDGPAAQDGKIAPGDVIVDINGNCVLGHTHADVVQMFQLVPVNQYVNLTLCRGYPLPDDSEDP
Sequence of CASK, O14936 (O14936 487-570): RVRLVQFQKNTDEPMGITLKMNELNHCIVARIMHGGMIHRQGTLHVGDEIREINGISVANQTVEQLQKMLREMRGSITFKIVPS
Sequence of DLG1_3, Q12959 (Q12959 457-571): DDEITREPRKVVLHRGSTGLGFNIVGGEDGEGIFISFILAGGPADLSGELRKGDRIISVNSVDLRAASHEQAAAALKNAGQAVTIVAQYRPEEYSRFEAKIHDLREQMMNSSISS
Sequence of ARHGEF12, Q9NZN5-2 (Q9NZN5 other isoform, or with tags, fused parts or gaps): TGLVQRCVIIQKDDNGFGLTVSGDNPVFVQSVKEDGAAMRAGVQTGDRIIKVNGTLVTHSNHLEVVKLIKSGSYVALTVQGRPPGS
Sequence of FRMPD2_3, Q68DX3 (Q68DX3 1073-1166): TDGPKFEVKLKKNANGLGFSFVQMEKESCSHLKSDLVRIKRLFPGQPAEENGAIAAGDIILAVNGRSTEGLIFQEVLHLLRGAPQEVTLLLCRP
Sequence of GRID2IP_2, A4D2P6 (A4D2P6 272-370): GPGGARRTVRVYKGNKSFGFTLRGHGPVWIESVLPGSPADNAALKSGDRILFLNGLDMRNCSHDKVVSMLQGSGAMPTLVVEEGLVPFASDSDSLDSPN
Sequence of MAGI1_1, Q96QZ7 (Q96QZ7 1-106): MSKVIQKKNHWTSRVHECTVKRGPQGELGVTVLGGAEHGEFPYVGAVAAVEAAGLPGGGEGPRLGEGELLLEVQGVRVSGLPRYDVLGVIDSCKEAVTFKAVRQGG
Sequence of Inadl_5, Q8NI35 (Q8NI35 673-780): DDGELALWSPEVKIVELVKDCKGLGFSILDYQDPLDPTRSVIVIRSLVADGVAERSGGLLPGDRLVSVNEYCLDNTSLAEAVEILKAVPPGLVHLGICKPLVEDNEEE
Sequence of Inadl_4, Q8NI35 (Q8NI35 547-651): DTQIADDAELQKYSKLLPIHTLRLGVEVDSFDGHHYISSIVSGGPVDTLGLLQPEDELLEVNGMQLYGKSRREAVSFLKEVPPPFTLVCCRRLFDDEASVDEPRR
Sequence of GRIP2_4, Q9C0E4 (Q9C0E4 446-548): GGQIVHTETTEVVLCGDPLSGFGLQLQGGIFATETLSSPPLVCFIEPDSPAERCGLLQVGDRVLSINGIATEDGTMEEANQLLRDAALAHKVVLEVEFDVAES
Sequence of PDLIM1, O00151 (O00151 1-87): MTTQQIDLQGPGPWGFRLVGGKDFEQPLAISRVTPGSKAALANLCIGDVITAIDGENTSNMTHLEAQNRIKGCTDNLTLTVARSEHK
Sequence of Inadl_6, Q8NI35 (Q8NI35 1058-1167): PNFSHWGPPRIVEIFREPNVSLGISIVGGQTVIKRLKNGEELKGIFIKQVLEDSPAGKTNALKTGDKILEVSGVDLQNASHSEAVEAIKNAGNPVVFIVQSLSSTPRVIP

SNAKAVETDV [KCNA4, P22459]
4.89: SNTG1, Q9NSN8; [1]
below the threshold: FRMPD2_3, Q68DX3; [1] | CASK, O14936; [1] | MPP7, Q5T2T1; [1] | PARD3B_1, Q8TEW8; [1] | HTRA1, Q92743; [1] | GRIP2_4, Q9C0E4; [1] | DFNB31_1, Q9P202; [1] | MPDZ_10, O75970; [1] | DLG1_3, Q12959; [1] | HTRA3, P83110; [1] | TJP1_3, Q07157; [1] | LIN7C, Q9NUP9; [1] | Inadl_6, Q8NI35; [1] | MAGI1_1, Q96QZ7; [1] | PTPN13_1, Q12923; [1] | Inadl_5, Q8NI35; [1] | GRID2IP_2, A4D2P6; [1] | GRIP1_4, Q9Y3R0; [1] | APBA1_1, Q02410; [1] | Inadl_4, Q8NI35; [1] | MPDZ_12, O75970; [1]
3.9: MAGI3_2, Q5TCQ9; [1]
3.77: PDLIM1, O00151; [1]
3.51: Inadl_3, Q8NI35; [1]
3.59: NHERF2_2, Q15599; [1]
3.88: ARHGEF12, Q9NZN5-2; [1]

SSIDLWETAL [SLC15A5, A6NIM6]
4.66: Inadl_3, Q8NI35; [2]
5.41: SNTG1, Q9NSN8; [2] | NHERF2_2, Q15599; [2]
5.22: ARHGEF12, Q9NZN5-2; [2]
4.97: DFNB31_1, Q9P202; [2]
4.25: HTRA1, Q92743; [2]
4.54: GRID2IP_2, A4D2P6; [2]
4.49: PARD3B_1, Q8TEW8; [2]
4.22: DLG1_3, Q12959; [2] | PDLIM1, O00151; [2]
below the threshold: FRMPD2_3, Q68DX3; [2] | CASK, O14936; [2] | GRIP2_4, Q9C0E4; [2] | MPDZ_10, O75970; [2] | HTRA3, P83110; [2] | TJP1_3, Q07157; [2] | MAGI1_1, Q96QZ7; [2] | PTPN13_1, Q12923; [2] | Inadl_5, Q8NI35; [2] | GRIP1_4, Q9Y3R0; [2] | APBA1_1, Q02410; [2] | Inadl_4, Q8NI35; [2] | MPDZ_12, O75970; [2]
3.81: MPP7, Q5T2T1; [2] | MAGI3_2, Q5TCQ9; [2]
5.21: LIN7C, Q9NUP9; [2]
5.69: Inadl_6, Q8NI35; [2]

SKKNELFSNL [NHERF1, O14745]
below the threshold: SNTG1, Q9NSN8; [3] | FRMPD2_3, Q68DX3; [3] | CASK, O14936; [3] | MPP7, Q5T2T1; [3] | PARD3B_1, Q8TEW8; [3] | HTRA1, Q92743; [3] | GRIP2_4, Q9C0E4; [3] | DFNB31_1, Q9P202; [3] | MPDZ_10, O75970; [3] | DLG1_3, Q12959; [3] | HTRA3, P83110; [3] | TJP1_3, Q07157; [3] | PDLIM1, O00151; [3] | LIN7C, Q9NUP9; [3] | Inadl_6, Q8NI35; [3] | MAGI1_1, Q96QZ7; [3] | PTPN13_1, Q12923; [3] | Inadl_5, Q8NI35; [3] | Inadl_3, Q8NI35; [3] | GRID2IP_2, A4D2P6; [3] | MAGI3_2, Q5TCQ9; [3] | GRIP1_4, Q9Y3R0; [3] | NHERF2_2, Q15599; [3] | APBA1_1, Q02410; [3] | Inadl_4, Q8NI35; [3] | MPDZ_12, O75970; [3]
3.98: ARHGEF12, Q9NZN5-2; [3]

PPRQRSETQV [HPV82-E6, Q9IR59]
below the threshold: FRMPD2_3, Q68DX3; [2] | CASK, O14936; [2] | MPP7, Q5T2T1; [2] | PARD3B_1, Q8TEW8; [2] | HTRA1, Q92743; [2] | GRIP2_4, Q9C0E4; [2] | DFNB31_1, Q9P202; [2] | MPDZ_10, O75970; [2] | HTRA3, P83110; [2] | TJP1_3, Q07157; [2] | PDLIM1, O00151; [2] | Inadl_6, Q8NI35; [2] | MAGI1_1, Q96QZ7; [2] | PTPN13_1, Q12923; [2] | Inadl_3, Q8NI35; [2] | GRID2IP_2, A4D2P6; [2] | GRIP1_4, Q9Y3R0; [2] | NHERF2_2, Q15599; [2] | APBA1_1, Q02410; [2] | Inadl_4, Q8NI35; [2] | MPDZ_12, O75970; [2]
3.64: LIN7C, Q9NUP9; [2]
5.68: MAGI3_2, Q5TCQ9; [2]
3.99: SNTG1, Q9NSN8; [2] | DLG1_3, Q12959; [2]
3.72: ARHGEF12, Q9NZN5-2; [2]
3.31: Inadl_5, Q8NI35; [2]
